Results as given in article PMC4475061 (2015).

B1: CHMP1B WT fused to the Gal4 DNA-binding domain [human] / CHMP1A (positive-control partner of the Gal4-CHMP1B constructs in the two-hybrid assay) [human] (parent complex)
chain 1: MEKHLFNLKFAAKELSRSAKKCDKEEKAEKAKIKKAIQKGNMEVARIHAENAIRQKNQAVNFLRMSARVDAVAARVQTAVTMGKVTKSMAGVVKSMDATLKTMNLEKISALMDKFEHQFETLDVQTQQMEDTMSSTTTLTTPQNQVDMLLQEMADEAGLDLNMELPQGQTGSVGTSVASAEQDELSQRLARLRDQV
chain 2: MDDTLFQLKFTAKQLEKLAKKAEKDSKAEQAKVKKALLQKNVECARVYAENAIRKKNEGVNWLRMASRVDAVASKVQTAVTMKGVTKNMAQVTKALDKALSTMDLQKVSSVMDRFEQQVQNLDVHTSVMEDSMSSATTLTTPQEQVDSLIMQIAEENGLEVLDQLSQLPEGASAVGESSVRSQEDQLSRRLAALRN
B2: ULK3 fused to the VP16 activation domain [human] / CHMP1B WT fused to the Gal4 DNA-binding domain [human] (parent complex)
chain 1: MAGPGWGPPRLDGFILTERLGSGTYATVYKAYAKKDTREVVAIKCVAKKSLNKASVENLLTEIEILKGIRHPHIVQLKDFQWDSDNIYLIMEFCAGGDLSRFIHTRRILPEKVARVFMQQLASALQFLHERNISHLDLKPQNILLSSLEKPHLKLADFGFAQHMSPWDEKHVLRGSPLYMAPEMVCQRQYDARVDLWSMGVILYEALFGQPPFASRSFSELEEKIRSNRVIELPLRPLLSRDCRDLLQRLLERDPSRRISFQDFFAHPWVDLEHMPSGESLGRATALVVQAVKKDQEGDSAAALSLYCKALDFFVPALHYEVDAQRKEAIKAKVGQYVSRAEELKAIVSSSNQALLRQGTSARDLLREMARDKPRLLAALEVASAAMAKEEAAGGEQDALDLYQHSLGELLLLLAAEPPGRRRELLHTEVQNLMARAEYLKEQVKMRESRWEADTLDKEGLSESVRSSCTLQ
chain 2: B1 chain 1
B3: CHMP1B WT fused to the Gal4 DNA-binding domain [human] / ULK3 fused to the VP16 activation domain [human] (parent complex)
chain 1: B1 chain 1
chain 2: B2 chain 1
B4: ULK3 fused to the VP16 activation domain [human] / CHMP1A fused to the Gal4 DNA-binding domain [human] (parent complex)
chain 1: B2 chain 1
chain 2: B1 chain 2

Variants of: B1
Experiment: yeast two-hybrid (β-galactosidase activity); read off a plot

Variant	response
chain 1 MEKHLFNLKFAAKELSRSAKKCDKEEKAEKAKIKKAIQKGNMEVARIHAENAIRQKNQAVNFLRMSARVDAVAARVQTAVTMGKVTKSMAGVVKSMDATLKTMNLEKISALMDKFEHQFETLDVQTQQMEDTMSSTTTLTTPQNQVDMLLQEMADEAGLDLNMELPQGQTGSVGTSVASAEQDELSQRLAAAADQV [chain 1 R191A, chain 1 L192A, chain 1 R193A]	~0.54
chain 1 MEKHLFNLKFAAKELSRSAKKCDKEEKAEKAKIKKAIQKGNMEVARIHAENAIRQKNQAVNFLRMSARVDAVAARVQTAVTMGKVTKSMAGVVKSMDATLKTMNLEKISALMDKFEHQFETLDVQTQQMEDTMSSTTTLTTPQNQVDMLLQEMADEAGLDLNMELPQGQTGSVGTSVASAEQDEAAARLARLRDQV [chain 1 L185A, chain 1 S186A, chain 1 Q187A]	~0.62
chain 1 MEKHLFNLKFAAKELSRSAKKCDKEEKAEKAKIKKAIQKGNMEVARIHAENAIRQKNQAVNFLRMSARVDAVAARVQTAVTMGKVTKSMAGVVKSMDATLKTMNLEKISALMDKFEHQFETLDVQTQQMEDTMSSTTTLTTPQNQVDMLLQEMADEAGLDLNMELPQGQTGSVGTSVASAEQDELSQRLARLRAAA [chain 1 D194A, chain 1 Q195A, chain 1 V196A]	~0.48
chain 1 MEKHLFNLKFAAKELSRSAKKCDKEEKAEKAKIKKAIQKGNMEVARIHAENAIRQKNQAVNFLRMSARVDAVAARVQTAVTMGKVTKSMAGVVKSMDATLKTMNLEKISALMDKFEHQFETLDVQTQQMEDTMSSTTTLTTPQNQVDMLLQEMADEAGLDLNMELPQGQTGSVGTSVASAEQDELSQAAARLRDQV [chain 1 R188A, chain 1 L189A]	~0.77

Variants of: B2
Experiment: as above

Variant	response
chain 1 MAGPGWGPPRLDGFILTERLGSGTYATVYKAYAKKDTREVVAIKCVAKKSLNKASVENLLTEIEILKGIRHPHIVQLKDFQWDSDNIYLIMEFCAGGDLSRFIHTRRILPEKVARVFMQQLASALQFLHERNISHLDLKPQNILLSSLEKPHLKLADFGFAQHMSPWDEKHVLRGSPLYMAPEMVCQRQYDARVDLWSMGVILYEALFGQPPFASRSFSELEEKIRSNRVIELPLRPLLSRDCRDLLQRLLERDPSRRISFQDFFAHPWVDLEHMPSGESLGRATALVVQAVKKDQEGDSAAALSLYCKALDFFVPALHYEVDAQRKEAIKAKVGQYDSRAEELKAIVSSSNQALLRQGTSARDLLREMARDKPRLLAALEVASAAMAKEEAAGGEQDALDLYQHSLGELLLLLAAEPPGRRRELLHTEVQNLMARAEYLKEQVKMRESRWEADTLDKEGLSESVRSSCTLQ [chain 1 V338D]	~0.061
chain 1 MAGPGWGPPRLDGFILTERLGSGTYATVYKAYAKKDTREVVAIKCVAKKSLNKASVENLLTEIEILKGIRHPHIVQLKDFQWDSDNIYLIMEFCAGGDLSRFIHTRRILPEKVARVFMQQLASALQFLHERNISHLDLKPQNILLSSLEKPHLKLADFGFAQHMSPWDEKHVLRGSPLYMAPEMVCQRQYDARVDLWSMGVILYEALFGQPPFASRSFSELEEKIRSNRVIELPLRPLLSRDCRDLLQRLLERDPSRRISFQDFFAHPWVDLEHMPSGESLGRATALVVQAVKKDQEGDSAAALSLYCKALDFFVPALHYEVDAQRKEAIKAKVGQYVSRAEELKAIVSSSNQALLRQGTSARDLLREMARDKPRLLAALEVASAAMAKEEAAGGEQDALDLYQHSLGELLLLLAAEPPGRRRELLHTEVQNLDARAEYLKEQVKMRESRWEADTLDKEGLSESVRSSCTLQ [chain 1 M434D]	~0.051

Variants of: B3
Experiment: as above

Variant	response
chain 1 MEKHLFNLKFAAKELSRSAKKCDKEEKAEKAKIKKAIQKGNMEVARIHAENAIRQKNQAVNFLRMSARVDAVAARVQTAVTMGKVTKSMAGVVKSMDATLKTMNLEKISALMDKFEHQFETLDVQTQQMEDTMSSTTTLTTPQNQVDMLLQEMADEAGLDLNMELPQGQTGSVGTSVASAEQDELSQRLAAAADQV [chain 1 R191A, chain 1 L192A, chain 1 R193A]	~0.028

Variants of: B4
Experiment: as above

Variant	response
chain 1 MAGPGWGPPRLDGFILTERLGSGTYATVYKAYAKKDTREVVAIKCVAKKSLNKASVENLLTEIEILKGIRHPHIVQLKDFQWDSDNIYLIMEFCAGGDLSRFIHTRRILPEKVARVFMQQLASALQFLHERNISHLDLKPQNILLSSLEKPHLKLADFGFAQHMSPWDEKHVLRGSPLYMAPEMVCQRQYDARVDLWSMGVILYEALFGQPPFASRSFSELEEKIRSNRVIELPLRPLLSRDCRDLLQRLLERDPSRRISFQDFFAHPWVDLEHMPSGESLGRATALVVQAVKKDQEGDSAAALSLYCKALDFFVPALHYEVDAQRKEAIKAKVGQYDSRAEELKAIVSSSNQALLRQGTSARDLLREMARDKPRLLAALEVASAAMAKEEAAGGEQDALDLYQHSLGELLLLLAAEPPGRRRELLHTEVQNLMARAEYLKEQVKMRESRWEADTLDKEGLSESVRSSCTLQ [chain 1 V338D]	~0.075
